Paper PMC1851384, “Involvement of maternal embryonic leucine zipper kinase (MELK) in mammary carcinogenesis through interaction with Bcl-G, a pro-apoptotic member of the Bcl-2 family” (Breast Cancer Research, 2007)

Molecular target: T1, His-tagged wild-type MELK recombinant protein (human, UniProt Q14680-1 1-651)
T1 construct: pET21a usually adds a C-terminal His6 tag; also called WT-MELK; His-tagged WT-MELK; source: E. coli BL21 codon-plus (DE3) RIL, purified (Ni-NTA superflow, nondenaturing)
Test: pull-down; in vitro binding assay: 10 ug His-tagged MELK held by anti-6XHis antibody on protein G Sepharose; 5 ug Bcl-GL recombinant protein in 500 ul binding buffer (50 mM Tris, 75 mM NaCl, 10 mM MgCl2, 1 mM DTT, 2% BSA, 100 uM ATP), 30 minutes at 4°C; blot with anti-Bcl-GL
Conditions: both partners purified

T1 sequence (Q14680 whole entry): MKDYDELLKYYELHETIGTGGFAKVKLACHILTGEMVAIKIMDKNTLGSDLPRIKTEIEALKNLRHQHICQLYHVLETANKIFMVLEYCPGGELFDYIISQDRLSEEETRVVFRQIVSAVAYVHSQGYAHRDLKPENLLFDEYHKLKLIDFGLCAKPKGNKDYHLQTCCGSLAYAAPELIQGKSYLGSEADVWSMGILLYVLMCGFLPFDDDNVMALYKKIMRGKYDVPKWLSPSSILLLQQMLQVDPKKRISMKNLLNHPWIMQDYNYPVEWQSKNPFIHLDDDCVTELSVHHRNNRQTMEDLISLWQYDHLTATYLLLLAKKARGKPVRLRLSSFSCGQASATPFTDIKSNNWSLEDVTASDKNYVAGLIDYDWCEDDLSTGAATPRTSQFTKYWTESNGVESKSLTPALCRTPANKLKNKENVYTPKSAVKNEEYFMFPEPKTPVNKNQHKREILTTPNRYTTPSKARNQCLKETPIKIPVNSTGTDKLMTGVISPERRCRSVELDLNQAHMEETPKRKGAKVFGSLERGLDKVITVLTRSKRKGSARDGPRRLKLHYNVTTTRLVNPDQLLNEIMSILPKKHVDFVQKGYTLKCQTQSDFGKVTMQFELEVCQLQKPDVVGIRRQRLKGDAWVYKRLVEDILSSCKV

binding result: binds
B1: Bcl-GL recombinant protein (GST removed) (natural protein, human, UniProt Q9BZR8-1 1-327, looked up)
chain: MCSTSGCDLEEIPLDDDDLNTIEFKILAYYTRHHVFKSTPALFSPKLLRTRSLSQRGLGNCSANESWTEVSWPCRNSQSSEKAINLGKKKSSWKAFFGVVEKEDSQSTPAKVSAQGQRTLEYQDSHSQQWSRCLSNVEQCLEHEAVDPKVISIANRVAEIVYSWPPPQATQAGGFKSKEIFVTEGLSFQLQGHVPVASSSKKDEEEQILAKIVELLKYSGDQLERKLKKDKALMGHFQDGLSYSVFKTITDQVLMGVDPRGESEVKAQGFKAALVIDVTAKLTAIDNHPMNRVLGFGTKYLKENFSPWIQQHGGWEKILGISHEEVD
notes: source: E. coli BL21 codon-plus RIL, purified (Glutathione Sepharose 4B), GST removed with PreScission protease
